Experimental data from PMC3314109.

Biological target: the mutants of both surface loops (39-loop and 60-loop mutants of FXa)
Experiment: prothrombinase activity titration

factor Va (thrombin activated factor V) (from UniProt P12259 29-737; P12259 1574-2224) (complex)
Kd: 1 to 2 nM
